From the DeepSol protein solubility set

Test: soluble on expression in E. coli; label from the status in PepcDB or PDB records

Sequence | soluble on expression in E. coli
MSVIIVGGGMAGATLALAISQFSHGTLPVHLIEAKAPEADGHPGFDARAIALAAGTCQQLARIGVWQAISDCATAINTVHVSDRGHAGFVTLDAQDYSLAALGHVAELHDIGLRLFALLRKAPGVTLHCPERVASVSRTQQQVNVTLENGNVIAGSVLVAANGTHSALASRCGVDWHQEPYEQLAVIANVATAIPHQGRAFERFTPNGPLAMLPMSHGRCSLVWCHPLDQRDEVLSWSDAQFCHALQAAFGWRLGRITQAGKRSAYPLALTTAAKVFSHRTVVVGNAAQTLHPIAGQGFNLGLRDVMSLAETLVAAQDAGEDIGAWHVLSRYQQRRQVDRDTTIGVTNGLVHLFANRWAPLVIGRNIGLMAMELLPPARDALAQRTLGWVARLEHHHHHH | not soluble
MSVKEPEKFLASHIYNIDYQEDLNKCFANLCTNKKNTILLESAEIDTKDKLKSILVLNSALRIACIENKVFIKPLSENGKYALKAIQENIKKDVDYKYDNNQLVLTFEFIKDYQLSESQKLKKPSVFDALRIIKDSFEIYNEFSIFLAGLFAYDVVASFENIGKIKRKNKCPDYVFYLADTILVSDHQEQKTFIQVNSFGHQTITDLEDSVAAIKQNINNDIELKVEKFKNIEPKESINDRDFCIVVDKLKSHIIDGDIFQVVPSRSFFLPCQNSLEVYKELKRTNPSPYMFYMQDEDFILFGASPESALKYQKSTNQVEIYPIAGTRRRAKNSDGSINADLDSRIELELRLDAKENAEHMMLVDLARNDVARISKTGTRYVADLLKVDRYSHVMHLVSRVVGQLADDLDALHAYQASMNMGTLTGAPKIKAMQLISEVEKQTRGVYGGAIGYFNGYGDLDSCIVIRSAYVENGVAEIQAGAGVVLDSIPIAEADETRTKAQAVISAIKNVHGV | not soluble
MSVKHHDVIIIGAGAAGLMCAATAGYRGRDVLVLDNAKQAGRKILISGGGRCNFTNLKVEPANFICGNPHFVKSALARYPSQQFIELVERHGIEYHERDHGQLFCNDSAKEIVTMLLTECEWAGVSIKLRTDILSVGKNEAGRFELNTSNGELSCDSLVIATGGLSMPKLGATPYGYQLAEQFGLKVLPTHAGLVPFTWHSEDKIRFEPLSGIAVPSRITAKDGTAFSEALLFTHRGLSGPAILQISNYWKAGETIKINLLPNMDAAQAIEQQLAAHPKQSLRNTLSLWLPKRLVEVLFDEVLLNKALNQLVHAERAKLVDDLHRWTVLMNGTEGYRTAEVTLGGVDTHELSSKTMEAIKVPGLFFIGEVMDVSGWLGGFNFQWAWASGVAAGKAV | not soluble
MSVLDLVALSEGMTAGEAIAHSVRAAQIAEEHNYARFWVAEHHNSEGLASSATTLLMGHIAGHTSRIRVGSGGIMMPNHSALHVAEELGTLEAIYPGRIEAGLGRAPGTDPMTARELGRASSLVDDVLSTIVSLQNYLDTPEERPNIIAHPGINSRVPLFMLGSSLNGAAMAAKLDLPFAFASHFAPFQMGPAIASYRELAANPYVMAAANVLVCDTEEEAEFQISTLHQMFAGIVTNSRGKLAPPVRNLKDKLDPMIWKHIEDSLEMTFIGTAESVVLQLQEFADRYKLDEIITVTYSYDPEVRFRSIAALGT | not soluble
MSVLRRLTWLAFPLLSMAFNVQANTAPAQLNKAELEQRFAKLGLQVEEIKTSDINGLLEVQTSGGVLFSSPDGEHFIAGTLYALDGNGGYVDVLAKRQAPLNAKKIAALQDSMIEFKAPNEKYAITVFTDITCGYCVRLHSQIKEYNDLGITVRYLAYPRQGPQGQVADQMAAIWCSNDPKAAMHDAKVNRKTITADKDIAQCQKTIAQHYMLGHELGISGTPAIFLPNGEMVGGYLPAPQLLQRLQATQ | not soluble
MSVMADRLDNMDITVSSPDGNIEGRYRRRGELTLEFRGDAYEQYRQHTLEHQLARLATLLWTGYQREYDAAVSEVVGHPVKDERHLWDANRRRYREAQRATAASGMSAGGRVYIENTGMLSWHVVIRDGTLGELTAAEFASECLSAFDALWRDYRSKMAALRAEHYGLSFASKRRERQPRH | not soluble
MSVPFLQQYRVGSYILKQKLAGNKRYPLVLMLEPLFQCNLACAGCGKIDYPEETLRRRLSVDECLHAVDECGAPVVSIAGGEPLIHKEMPQIVQGIIQRKKFVYLCTNALLLDTRMDDYQPSPYLTFSIHLDGNRERHDASVCREGVYDKVIPVIEQALQRGFRVTVNCTLFQSETAEEVAEFFDTATKLGVEGINVSPGFSYEHAPRQDVFLQRSVSKRLFRSIFEIGKKRKLPWKFNHSSLYLDFLAGNQSYKCTPWGNPTRNLFGWQRPCYLLVDEGYATSFRELMEETDWDRYGVGNNPKCANCMAHCGFEPTAINDTFAHPLKALRVSMRGPRVEGPMALDPLQTSSESQHNTDKRKPFPIPVTVEHKTVAPSSDHSSGPDN | not soluble
MSVRIEDHAMLGNCHSAALVDHRGTIGWLCLPRFDSDAVFAALLGDQQHGQWALSPAADFRTERAYQDDSLVLCTRMITDSGTVELIDFMVASENGEVHQHLVRIVRCVQGSVPMHMRLTFRFNYGRTLEHHHHHH | soluble
MSVRRLADDVYQPAEFSFTKENQIWVKNTIEKYPVGREQSAVIPLLMRAQEQDGWVTRAAIEHIAQILSMAYIRVLEIATFYTQFQLQPVGTKAHIQVCGTTPCMLRGSEELIKVCQKKIHHKPFVTNQDGSLSWEEVECLGACVNAPMVMIFKDTYEDLTAKRLEEIIDAFEAGKGAEIAVGPQNSRKSSEPISGLTSLIDEKEQKSLKSLKKKDKKEMGA | not soluble
MSVVSNHHSNGNGNSTVYDTNGNDEIKKEVKDEPMASDSEVPFGELMKRDKKEKKQKKRKAESGSDEDDYKPEKRKSSAKNGKKKDVGSDSEDDYKPEKKKSKKNNKKKAQESSEDDDEESEGDVSEEDVKPQIHSDDELEEEDEAPTTDDEEEQKRKEKERRKKEKREKKERKEKKRLEKENRKIKEEDDEDSDDEDDEKAKKKKRKSKGAEKSKPSTSKKDAGGKKEPPKKKVKKEEDIEDIWEWWKEEKKPAGVKWNSLQHCGPLFAPPYIPLPSHVHFKYGGEKMKLTLETEEIAQFYAGVLDHEYSTKEAFNKNFMKDWRKVMTVEERERIHDLKKCDFRAIDAYQKEQREIRKAMTKEEKLKIKEEKEAEVKIYGIAIIDGHRQKVANFRIEPPGVFRGRGGHPKMGLIKKRIMPEDVIINCGKDTEIPKPPPGHKWKEVRHDNTVTWLCSWTESVLGQNKYIMLNPSSKIKGEKDFEKYETARRLKKKIGGIRERYTDDFKSKEMRVRQRATALYFIDKLALRAGNEKDVDEAADTVGCCSLRVEHIKLFDSAKLNEDDKKEKEFVVEFDFLGKDSIRYFNRVSVEKRVYKNLKIFMEGKAPSDDLFDRLDTATLNDHLRSLMDGLTVKVFRTYNASITLQEQLIKLTNPKDNVAAKILSYNRANRQVAILCNHQRAVSKGFDESMQKLEQKIKDKKKEVKEAEAALKSARGAEKEKAQKKYDRLKEQLKKLKISRTDKDENKQIALGTSKLNYIDPRITVAWCKKFEVPLEKVFTKTHREKFRWAIDMTNSSDEEYVF | soluble
MSWLKEVIGTEKAVIAMCHLRALPGDPSFDAQLGMNWVIDKAWDDLMALQNGGVDAVMFSNEFSLPYLTKVRPETTAAMARIIGQLMSDIRIPFGVNVLWDPVASFDLAMATGAKFIREIFTGAYASDFGVWDTNVGETIRHQHRIGAGEVKTLFNIVPEAAVYLGNRDICSIAKSTVFNNHPDALCVSGLTAGTRTDSALLKRVKETVPDTVVLANTGVCLENVEEQLSIADGCVTATTFKKDGVFANFVDQARVSQFMEKVHHIRR | not soluble
MSYDYIVSQYLAYIKDITLEGCKAEEIFDYFKDKLNIVSKEGCDKPYIKVYKNNRLYFSYYGIPAINEFWPFLNALVRISNNVIQLDEKEKELAANIRGNIKLFVTPDCTKCPIAAELLYQLPILNSNISLEIIDVTTYDDLGKKHRVLNVPKIVLNEKTEIPGSFPPTIILKMLAKGSEQH | soluble
MSYEDWAGGIRCSECGREYTGIECPICRQADPTEREVVTEHGNGRGDQQPPENGTVSADSGVYDIDKIEHERHTDAEKVNPEVVDPSDYVTRAVSGVVFNKRHAWKAENRADEDNPPSLFVVTTADSEFNWIEIPLWDDAEGAMEDISIGDPIQAEGKLSKDNGVHNIHVHSQDSIDILTEPPEVKFDSMAIDQITSTTPKVDLEGTVERVGEIKDIQLDDEKVKLREIHVSDLNNDQIQVALWRTNAYEKVAPGDEIIIAGGLAKPHNEKVVVRVGWSGHIGYRSSLEHHHHHH | not soluble
MSYKIVIDSCGELLDEWKKDPRFESVALTLSVGGENIIDDENFDQASFLKKVADCPECPKSACPSPERYMRAFDCDADHVYAVTLSAELSGSYNSAVLGKSLLQEENPGKQIYVFNSKSASVGQSLIAMKIQECEEAGYSFEKVIETVEAYIADQHTFFVLDNLETLRKNGRLSKVKALVASALKIKPVMGSTDEGAICQLDQARGMNKALVKMAQNIVDKTKDSENKILAISHCNCRERAVLLKNALEERMPVKHIVILDTAGVSSMYANDGGVIVAV | not soluble
MSYNSIRLPQDLPIYYKNFFPVKPFTKWLRYGQNNGDYFNRREFAFILADDVHIRYRSYNDEHAFFKALSSTNPEKLDIGAVYNHEPINNKRHTDYQAVERELVFDIDLTDYDPVRNCCKDATVCPKCWKFMVLAVKILDFQLEDMFDFKARMWVFSGRRGVHCWVGDKKARMLNNYQRSAIATRLNLFKKNGQCEVTEGRAKMTKVPPIVRDAFNVALKDGVFEKMIYDQGWLDKEDFITEYKFMSEVGRDDLRSLSETYKTPQERWNMIRGLFDDDYRKSLSPKDGLLDFKMQGRDRNYLLYFVLQRCYPRLDVNVSTGTNHLLKSPFCIHPKTGNVAVPLNVGKIEEFDVSKCPRIDHVVEELSSLLAERGNDENEDSKNRKFLAYKHGALAPYVENFEKFVSACIS | not soluble
MSYSDYPSDIADYSSFDNMMADICNPSSSSSSNRKRQADPAPDNFAKIPAGMATQPLYFPIHYPVNSGWQSFDVNQVYNNHNMNQPGFGWVALPPPMPHNLQIPDQNSYKPRSGLPVPPPMAEFQDVNGIQQNPNEIFKNAPITSAMCTPESDISTSTNLTPDQDSAQLPLTEQELNEEKNFVVNIESPGKLAHYFLPNVESEQEPNEHIPYPYAKSLFPTFGVPVSSDGNVVAEVVDGRLPAVGTRSKYDITVDEIRRRCGAPEHMNQSALYCFFRKSKKREAINRVKQVLTVHNIPMRTMQRQRKVTCFSPFLEEEATALARDLDSISEEFLPINIIAQEMLEKLMSSGNNLDVCHRMLKNTTATITRVIKTLEVRQPKITGQEEKLKGNNLDLSYHNFSLITHGFGHPNSLSHYRSYLSIVERAVLLCEKIQNGQSLLSNEDVIPGQKPFERMSNEYFVEWQMNLYKKKLAKQMEEVEENKSQRGEHQQIHQHQLYQQHHTNTHPPMPLMPPSQMNLCPPITPIPPQNVYYY | not soluble
MSYVAEKKKIANVLSNRYASAELTELWSPEAKILLERQLWIAVMKAQKNLGVDIPTEAISAYEAVIDRIDLDSIAQREKITRHDVKARIEEFNALAGYEHIHKGMTSRDLTENVEQLQIYRSLEMMRNKSVSVAAAIAQHAAQYQSLVMAGRSHNVAAQATTLGKRFASAAEEILVAIDRVEDLLSRYPLRGIKGPMGTAQDMLDLVGGDESKLAALETQIADHLGIARVFDSVGQVYPRSLDFDAVSALVQLGAGPSSLAHTIRLMAGNETVTEGFKEGQVGSSAMPHKMNARSCERVGGLQVILRGYLTMVADLSGQQWNEGDVFCSVIRRVALPDAFFALDGMYETFLTVLAEFGAFPAMIDRELERYLPFLATTRILMAAVRVGVGRETAHEVIKENAVAVALNMRENGGEQDLIDRLAADERLPMTREQLDEALADRHAFIGAAESQVARVVDRVNDLVRRYPAAAQYTPGDIL | not soluble
